Source: patent US20210284724A1 (I MAB BIOPHARMA US, published 2021)

T1: human CXCL13 (human, UniProt O43927 23-109)
T1 construct: also called huCXCL13; rhCXCL13
T1 sequence (looked up): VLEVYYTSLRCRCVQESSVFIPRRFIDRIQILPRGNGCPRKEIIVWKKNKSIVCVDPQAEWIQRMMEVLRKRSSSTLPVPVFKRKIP

T2: cynomolgus CXCL13 (cynomolgus, UniProt H6WS58 23-109)
T2 construct: also called cynoCXCL13; Cyno CXCL13
T2 sequence: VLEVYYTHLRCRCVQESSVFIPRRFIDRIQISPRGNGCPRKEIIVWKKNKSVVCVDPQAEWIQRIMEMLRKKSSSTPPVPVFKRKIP

T3: mouse CXCL13 (mouse, UniProt O55038 22-109)
T3 construct: also called rmCXCL13
T3 sequence (looked up): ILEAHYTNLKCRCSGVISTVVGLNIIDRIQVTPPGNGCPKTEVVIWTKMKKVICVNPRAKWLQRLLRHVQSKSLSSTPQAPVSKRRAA


Assays:
[1] = biological target: T1, human CXCL13; test: SPR Biacore T200
Method: To further optimization of 71F4-B, each Mutations in 71F4A3 useful for improving binding (Kon) were added into 71F4-B, the sequences were listed in Table 28. Antibodies according to these sequences were generated and affinity testing was performed by Biacore T200.

[2] = biological target: T1, human CXCL13; test: ELISA, coated antigen
[3] = biological target: T2, cynomolgus CXCL13; test: ELISA, coated antigen
[4] = biological target: T3, mouse CXCL13; test: ELISA, coated antigen
[5] = biological target: T1, human CXCL13; test: cell-based blocking ELISA, CXCL13 to CHO-K1-CXCR5
Method: Splenocytes were electro-fused with mouse myeloma cell line SP2/0 cells and plated into 96-well culture plate. The hybridoma supernatants were tested by ELISA binding assay for anti-human CXCL13 binders. Supernatants of positive binding clones were screened for function in blocking of human CXCL13 binding to its […] CXCR5 by Cell-based receptor blocking ELISA assay. Briefly, 5×10⁴ CHO-K1-CXCR5 cells were plated in 96-well plate with 100 μl of culture medium and incubated at 37° C. overnight. Cells were fixed with 100 μl of 2% PFA at RT for 1 hr after washing with PBS for 1 time. Blocking was done with 1% BSA in PBST for 1 hr at RT. Supernatants were diluted with PBS and pre-incubated with equal volume of 0.3 μg/ml human CXCL13 for 30 min at RT. 100 μl of antibody-antigen complex was then transferred into each cell wells for 30 min at RT. The samples were washed with 1×PBST for 3 times and 100 μl of 3 μg/ml of human Mab5261 antibody was add into each well to capture human CXCL13 and anti-human Fc-HRP was used to indirectly detect human CXCL13 when it bound to CHO-K1-CXCR5 cells. […] Reading was done at […].
Those antibodies were purified from hybridoma supernatants by binding with Protein G column and characterized by ELISA binding assays and cell-based blocking ELISA assays. […] 11/20 clones bound to both human CXCL13 and cynomolgus CXCL13 appeared to completely block human CXCL13 to human CXCR5. 11 blockers bound to both huCXCL13 and cynoCXCL13 were produced as chimeric human IgG1 antibodies for further Characterization.

| Binder | Kd [1] | koff [1] | kon [1] | EC50 [2] | binding result [3] | EC50 [4] | IC50 [5] | binding result [4] |
| --- | --- | --- | --- | --- | --- | --- | --- | --- |
| 71F4-B-A (antibody, V domains shown) VH: EVQLVESGGGLVQPGGSLRLSCAASGIDFSRYWMSWVRQAPGKGLEWVAEINPEASTINYAPSLKDRFTISRDNAKNSLYLQMNSLRAEDTAVYYCARQDDYEYYTMDYWGQGTTVTVSS VL: DIQMTQSPSSLSASVGDRVTITCKVSQDVNTGVAWYQQKPGKAPKLLIYSASYRYTGVPSRFSGSGSGTDFTFTISSLQPEDIATYYCQQYYSTPLTFGGGTKLEIK | 0.388 nM | 6.82e-05 s⁻¹ | 176000 M⁻¹ s⁻¹ |  |  |  |  |  |
| 71F4-B-H (antibody, V domains shown, also called 71F4A3-B-H) VH: EVQLVESGGGLVQPGGSLRLSCAASGIDFSRYWMSWVRQAPGKGLEWVAEINPESSTINYAPSLKDRFTISRDNAKNSLYLQMNSLRAEDTAVYYCARQDDYEHYTMDYWGQGTTVTVSS VL: DIQMTQSPSSLSASVGDRVTITCKVSQDVNTGVAWYQQKPGKAPKLLIYSASYRYTGVPSRFSGSGSGTDFTFTISSLQPEDIATYYCQQYYSTPLTFGGGTKLEIK | 0.0647 nM | 1.27e-05 s⁻¹ | 197000 M⁻¹ s⁻¹ |  |  |  |  |  |
| 71F4-B-ASH (antibody, V domains shown) VH: EVQLVESGGGLVQPGGSLRLSCAASGIDFSRYWMSWVRQAPGKGLEWVAEINPEASSINYAPSLKDRFTISRDNAKNSLYLQMNSLRAEDTAVYYCARQDDYSHYTMDYWGQGTTVTVSS VL: DIQMTQSPSSLSASVGDRVTITCKVSQDVNTGVAWYQQKPGKAPKLLIYSASYRYTGVPSRFSGSGSGTDFTFTISSLQPEDIATYYCQQYYSTPLTFGGGTKLEIK | 0.521 nM | 9.17e-05 s⁻¹ | 176000 M⁻¹ s⁻¹ |  |  |  |  |  |
| 71F4-B-S2 (antibody, V domains shown) VH: EVQLVESGGGLVQPGGSLRLSCAASGIDFSRYWMSWVRQAPGKGLEWVAEINPESSTINYAPSLKDRFTISRDNAKNSLYLQMNSLRAEDTAVYYCARQDDYSYYTMDYWGQGTTVTVSS VL: DIQMTQSPSSLSASVGDRVTITCKVSQDVNTGVAWYQQKPGKAPKLLIYSASYRYTGVPSRFSGSGSGTDFTFTISSLQPEDIATYYCQQYYSTPLTFGGGTKLEIK | 0.52 nM | 0.000268 s⁻¹ | 515000 M⁻¹ s⁻¹ |  |  |  |  |  |
| 71F4-B-L (antibody, V domains shown) VH: EVQLVESGGGLVQPGGSLRLSCAASGIDFSRYWMSWVRQAPGKGLEWVAEINPESSTINYAPSLKDRFTISRDNAKNSLYLQMNSLRAEDTAVYYCARQDDYLYYTMDYWGQGTTVTVSS VL: DIQMTQSPSSLSASVGDRVTITCKVSQDVNTGVAWYQQKPGKAPKLLIYSASYRYTGVPSRFSGSGSGTDFTFTISSLQPEDIATYYCQQYYSTPLTFGGGTKLEIK | 0.443 nM | 8.58e-05 s⁻¹ | 194000 M⁻¹ s⁻¹ |  |  |  |  |  |
| 71F4-B-LT (antibody, V domains shown, also called 71F4A3-B-LT) VH: EVQLVESGGGLVQPGGSLRLSCAASGIDFSRYWMSWVRQAPGKGLEWVAEINPESSTINYAPSLKDRFTISRDNAKNSLYLQMNSLRAEDTAVYYCARQDDYLTYTMDYWGQGTTVTVSS VL: DIQMTQSPSSLSASVGDRVTITCKVSQDVNTGVAWYQQKPGKAPKLLIYSASYRYTGVPSRFSGSGSGTDFTFTISSLQPEDIATYYCQQYYSTPLTFGGGTKLEIK | 0.0435 nM | 1.02e-05 s⁻¹ | 235000 M⁻¹ s⁻¹ |  |  |  |  |  |
| 71F4-B-AS (antibody, V domains shown) VH: EVQLVESGGGLVQPGGSLRLSCAASGIDFSRYWMSWVRQAPGKGLEWVAEINPEASSINYAPSLKDRFTISRDNAKNSLYLQMNSLRAEDTAVYYCARQDDYEYYTMDYWGQGTTVTVSS VL: DIQMTQSPSSLSASVGDRVTITCKVSQDVNTGVAWYQQKPGKAPKLLIYSASYRYTGVPSRFSGSGSGTDFTFTISSLQPEDIATYYCQQYYSTPLTFGGGTKLEIK | 0.321 nM | 7.25e-05 s⁻¹ | 226000 M⁻¹ s⁻¹ |  |  |  |  |  |
| 71F4-B-S1 (antibody, V domains shown) VH: EVQLVESGGGLVQPGGSLRLSCAASGIDFSRYWMSWVRQAPGKGLEWVAEINPESSSINYAPSLKDRFTISRDNAKNSLYLQMNSLRAEDTAVYYCARQDDYEYYTMDYWGQGTTVTVSS VL: DIQMTQSPSSLSASVGDRVTITCKVSQDVNTGVAWYQQKPGKAPKLLIYSASYRYTGVPSRFSGSGSGTDFTFTISSLQPEDIATYYCQQYYSTPLTFGGGTKLEIK | 0.404 nM | 9.26e-05 s⁻¹ | 229000 M⁻¹ s⁻¹ |  |  |  |  |  |

The next lines start with the values.

| Kd [1] | koff [1] | kon [1] | EC50 [2] | binding result [3] | EC50 [4] | IC50 [5] | binding result [4] | Binder |
| --- | --- | --- | --- | --- | --- | --- | --- | --- |
| 0.377 nM | 9.46e-05 s⁻¹ | 251000 M⁻¹ s⁻¹ |  |  |  |  |  | 71F4-B-SSH (antibody, V domains shown) VH: EVQLVESGGGLVQPGGSLRLSCAASGIDFSRYWMSWVRQAPGKGLEWVAEINPESSSINYAPSLKDRFTISRDNAKNSLYLQMNSLRAEDTAVYYCARQDDYSHYTMDYWGQGTTVTVSS VL: DIQMTQSPSSLSASVGDRVTITCKVSQDVNTGVAWYQQKPGKAPKLLIYSASYRYTGVPSRFSGSGSGTDFTFTISSLQPEDIATYYCQQYYSTPLTFGGGTKLEIK |
| 0.29 nM | 5.55e-05 s⁻¹ | 192000 M⁻¹ s⁻¹ |  |  |  |  |  | 71F4-B-SH (antibody, V domains shown) VH: EVQLVESGGGLVQPGGSLRLSCAASGIDFSRYWMSWVRQAPGKGLEWVAEINPESSTINYAPSLKDRFTISRDNAKNSLYLQMNSLRAEDTAVYYCARQDDYSHYTMDYWGQGTTVTVSS VL: DIQMTQSPSSLSASVGDRVTITCKVSQDVNTGVAWYQQKPGKAPKLLIYSASYRYTGVPSRFSGSGSGTDFTFTISSLQPEDIATYYCQQYYSTPLTFGGGTKLEIK |
|  |  |  | 2.27 µg/mL | no binding | 0.538 µg/mL | 11.7 µg/mL |  | 409G9C2 (antibody, V domains shown, Hybridoma mAb) VH: EVQLQQSGPGLVKPSGTLSLTCAVSGGSITSSYWWTWVRQPPGKGLEWIGEIYHSGRPNYNPSLKSRATISVDKSRNQFSLNLTSVTAADTAVYYCAKTAAVSYWYFDLWGRGTLVTVSS VL: DIKMNQSPSSMSASLGDRVTITCQASQDIGNDLIWFQQKPGKSPRPLIYYASNLANGVPSRFSGRRSESNYSLTISSLESEDMADYHCLQFKQYPFTFGAGTKLELK |
|  |  |  | 2.14 µg/mL | no binding | 0.761 µg/mL | 8.38 µg/mL |  | 410A4D10 (antibody, V domains shown, Hybridoma mAb) VH: EVQLQQSGPGLVRPSGTLSLTCAVSGGSISSRNWWGWVRQPPGKGLEWIGEIYHSGGTNYNPSLKSRVTISVDKSKNQFSLKLSSVTAADTAVYYCAREFGDSVWYFDLWGRGTLVTVSS VL: DIVITQSPSSMSASLGDRVTITCQASQDIGNDLVWFQQKPGKSPRPLIYYATNLADGVPSRFSGRRSESKYSLTISNLESEDMADYHCLQFKQYPYTFGAGTKLELK |
|  |  |  | 0.0223 µg/mL | no binding |  | 0.703 µg/mL | no binding | 181B11G12 (antibody, V domains shown, Hybridoma mAb) VH: EVKLVESEGGLVQPGSSMKLSCTASGFTFSDYYMAWVRQVPEKGLEWVANINYDGSDTYYLDSLKSRFIISRDNAKNILYLQMSSLKSEDTATYYCVRDVAYDDSYAMDYWGQGTSVTVSS VL: DIQMTQSPSSLSASLGGKVTITCKASQDINKYIAWYQHKPGKGPRLLIHYTSTLQPGIPSRFSGSGSGRDYSFSISNLEPEDIATYYCLQYDSLYTFGGGTKLEIK |
|  |  |  | 0.0138 µg/mL | no binding |  | 3.24 µg/mL | no binding | 345G1B4 (antibody, V domains shown, Hybridoma mAb) VH: QVTLKESGPGILQPSQTLSLTCSFSGFSLSTSNMGVGWIRQPSGKGLEWLAHIWWDDVKRYNPALKSRLTISKDTSSSQVFLKIASVDTADTATYYCARSTTLVAFDYWGQGTTLTVSS VL: DIVMTQSPSSLTVTAGEKVTMSCKSSQSLLNSGNQKNYLTWYQQKPGQPPKLLIYWASTRESGVPDRFTGSGSGTDFTLTISSVQAEDLAVYYCQNDYSYPTFGGGTKLEIK |
|  |  |  | 0.0135 µg/mL | no binding |  | 1 µg/mL | no binding | 396A5A1 (antibody, V domains shown, Hybridoma mAb) VH: QVTLKESGPGILQPSQTLSLTCSFSGFSLSTSGMGIGWIRQPSGKGLEWLAHIWWDDIKRYNPALKSRLTVSKDTSTSQVFLNIASVDTADIATYFCARSTTVVAFDYWGQGTTLTVSS VL: DILMTQSPSSLTVTAGEKVTMSCKSSQSLLNSGNQKNYLTWYQQKPGQPPKLLIYWASTRESGVPDRFTGTGSGTDFTLTISSVQAEDLAIYYCQNDYDYPTFGGGTKLEIK |
